The text below walks through data of publication PMC4975651 (Molecular cell, 2016).

This assay deals with ZMYND8-PBP (93-426aa) (human). The assay can be described thus: ITC. For orientation: Isothermal titration calorimetry measures the heat released or taken up as one component is titrated into another.

What is called Kd is the constant that tells how readily two partners part at equilibrium. Read a low Kd as tighter binding. For ARTKQTARKSTGGKA (monomethyl-lysine at K4; acetyl-lysine at K14) [H3K4me1K14ac peptide], the equilibrium dissociation constant (Kd) is roughly 5.4 µM.
